From patent publication US9873883B2, “Glyphosate resistant plants and associated methods” (Dow AgroSciences LLC, priority 2012, dated 2018) come the findings set out here.

This data set concerns C=C(OP(=O)(O)O)C(=O)O. The data set can be described thus: In vitro kinetic assay (inorganic phosphate production, malachite green). In kind it is biochemical, Mariprofundus ferrooxydans. To be noted: other: pH 7.5, 1 mM S3P.

A word on the Km: it is the concentration of substrate that gives half-maximal velocity. For the substance “Mariprofundus ferrooxydans EPSP synthase DGT-14 variant DGT-14 v6 (G101A), SEQ ID NO:1 (Mariprofundus ferrooxydans PV-1; G101A)”, the Km stood at 352.5 µM.
